Experimental data taken from patent US20130251728A1 (Regeneron, published 2013).
Substitutions are numbered along the chain they refer to.

T1: monkey (Macaca fascicularis) GCGR (full-length, on HEK293 reporter cells) (monkey (Macaca fascicularis), UniProt P47871 26-477 (human entry))
T1 chain: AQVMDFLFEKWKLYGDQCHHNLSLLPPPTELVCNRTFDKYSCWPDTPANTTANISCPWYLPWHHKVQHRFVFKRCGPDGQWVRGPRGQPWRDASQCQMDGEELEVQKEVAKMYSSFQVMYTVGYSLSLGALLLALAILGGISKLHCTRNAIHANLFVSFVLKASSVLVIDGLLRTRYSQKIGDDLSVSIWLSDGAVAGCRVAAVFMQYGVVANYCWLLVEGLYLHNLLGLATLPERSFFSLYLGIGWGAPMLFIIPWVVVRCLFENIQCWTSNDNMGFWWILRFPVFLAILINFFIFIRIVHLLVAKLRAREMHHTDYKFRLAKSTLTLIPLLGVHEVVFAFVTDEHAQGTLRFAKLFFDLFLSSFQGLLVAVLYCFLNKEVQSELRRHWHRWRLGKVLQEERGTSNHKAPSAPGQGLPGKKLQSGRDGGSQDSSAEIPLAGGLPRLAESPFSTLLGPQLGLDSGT

T2: hGCGR-mmh (human)
T2 construct: also called REGN547; monovalent hGCGR
T2 chain: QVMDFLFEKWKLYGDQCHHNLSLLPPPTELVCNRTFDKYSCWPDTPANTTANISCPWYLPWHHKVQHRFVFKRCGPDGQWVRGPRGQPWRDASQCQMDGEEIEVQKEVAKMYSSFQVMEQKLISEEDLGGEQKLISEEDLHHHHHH

B1: H4H1327P (antibody, V domains shown)
VH: EVQLVESGGGLVQPGGSLRLSCAASGFTFSNYLMNWVRQAPGKGLEWLANIQEDGIEKYYVDSVKGRFTISRDNAKNSLYLQMNSLRAEDTAVYYCAREPSHYDILTGYDYYYGMDVWGQGTTVTVS
VL: DIQMTQSPSSLSASVGDRVTITCRASQGIRNDLGWYQQKPGKAPKRLIYAASSLQSGVPSRFSGSGSGTEFILTVSSLQPEDFATYYCLQYNSNPFTFGPGTKVDIK
notes: also called anti-GCGR (hIgG4) antibody designated H4H1327P
B2: H4H1328P (antibody, V domains shown)
VH: EVQLVESGGALVQPGGSLRLSCTASGFTFSNYDMHWVRQTTGKGLEWISAIDTAGDTYYPGSVKGRFTVSRENAKNSFYLQMNSLRAGDTAVYYCAREGKYYDILTGDYHYYGMDVWGQGTTVTVS
VL: B1 VL with A51T, I72T, V75I, Y91H, N94Y, F96L, P100G, V104L, D105E
notes: Fully human anti-GCGR antibody; the controls are called isotype-matched hIgG4
B3: H4H1345N (antibody, V domains shown)
VH: QVQLVQSGADVKKPGASVKVSCKVSGHILTDLSMHWVRQPPGKGLEWMAGFDPEEGKIIYAQKFQGRVTMTEDTSTDTAYMELSSLRSGDTAVYYCATSDILTGYYRDYYGLDVWGQGTTLTVSS
VL: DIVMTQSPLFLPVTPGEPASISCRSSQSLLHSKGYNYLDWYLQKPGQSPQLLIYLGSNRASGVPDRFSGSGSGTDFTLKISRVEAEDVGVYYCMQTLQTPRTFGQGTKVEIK
notes: Anti-GCGR antibody from hybridoma; the controls are called isotype-matched hIgG4
B4: H4H1617N (antibody, V domains shown)
VH: B3 VH with P40A, A49G, K57E
VL: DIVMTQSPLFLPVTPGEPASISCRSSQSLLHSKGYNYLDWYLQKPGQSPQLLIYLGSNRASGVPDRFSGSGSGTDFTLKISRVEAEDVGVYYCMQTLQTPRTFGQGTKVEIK
notes: as for B3
B5: H4H1331P (antibody, V domains shown)
VH: QVQLVESGGGVVQPGRSLRLSCAASGFTFSNFGMHWVRQAPGKGLEWVAVIWFDEIDKYYADSVKGRFTISRDNSKNTLYPQMNSLRAEDTAVYYCAREDYDILTGYYYAMDVWGQGTTVTVS
VL: DIQMTQSPSSLSASVGDRVTITCRASQGIKNDLGWYQQKPGKAPKRLIYAASRLQSGVPSRFSGSGSGTEFTLTISSLQPEDFGTYYCLQHNSHPTFGQGTKVEIK
notes: as for B2
B6: H4H1765N (antibody, V domains shown)
VH: EEQLVESGGDLVQPGGSLRLSCAASGFTLSSYEMNWVRQAPGKGLEWVSYISRGGSLIHYTDSVKGRFTISRDNAKNSLYLQMNSLRAEDTAVYYCVRDPAARYHYYYHGMDVWGQGTTVTVSS
VL: DIVMTQSPLSLPVTPGEPASISCRSSQSLLHNNGYNYLDWYLQKPGQSPQLLIYLGSSRASGVPDRFSGSGSGTDFILKISRVEAEDVGVYYCMQALQTPWTFGRGTKVEIK
notes: as for B3

Each binder was assayed against human GCGR (full-length, on HEK293 reporter cells) (human, UniProt P47871 27-477) (assay: cell-based or functional assay).

Binder	IC50, inhibition of 100 pM GCG-stimulated luciferase activity, hGCGR reporter cells
B1	0.39 nM
B2	0.24 nM
B3	2.22 nM
B4	1.25 nM
B5	0.66 nM
B6	12.8 nM

Target: T1, monkey (Macaca fascicularis) GCGR …
Assay: cell-based or functional assay

Binder	IC50, inhibition of 100 pM GCG-stimulated luciferase activity, mfGCGR reporter cells
B1	2.56 nM
B2	2.73 nM
B3	3.86 nM
B4	4.24 nM
B5	8.29 nM
B6	75.2 nM

The binders below were run against mouse GCGR (full-length, on HEK293 reporter cells) (mouse, UniProt Q61606 27-485) (assay: cell-based or functional assay).
mouse GCGR (full-length, on HEK293 reporter cells), sequence (Q61606 27-485 limits assumed): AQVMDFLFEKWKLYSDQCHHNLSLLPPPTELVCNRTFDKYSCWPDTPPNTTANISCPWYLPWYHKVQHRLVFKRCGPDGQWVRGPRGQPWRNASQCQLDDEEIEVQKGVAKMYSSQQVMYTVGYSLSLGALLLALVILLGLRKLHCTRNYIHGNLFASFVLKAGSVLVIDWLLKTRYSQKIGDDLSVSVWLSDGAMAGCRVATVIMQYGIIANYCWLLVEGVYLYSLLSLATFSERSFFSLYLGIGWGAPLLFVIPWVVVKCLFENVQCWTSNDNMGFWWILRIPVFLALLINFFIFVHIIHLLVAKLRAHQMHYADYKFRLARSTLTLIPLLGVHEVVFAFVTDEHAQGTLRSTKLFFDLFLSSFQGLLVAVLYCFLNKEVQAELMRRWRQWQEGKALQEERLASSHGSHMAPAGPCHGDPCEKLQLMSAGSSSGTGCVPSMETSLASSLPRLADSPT

Binder	IC50, inhibition of 100 pM GCG-stimulated luciferase activity, mGCGR reporter cells
B1	1.04 nM
B2	1.26 nM
B5	1.62 nM

The binders below were run against rat GCGR (full-length, on transiently transfected HEK293 reporter cells) (rat, UniProt P30082 27-485) (assay: cell-based or functional assay).
rat GCGR (full-length, on transiently transfected HEK293 reporter cells), sequence (P30082 27-485 limits assumed): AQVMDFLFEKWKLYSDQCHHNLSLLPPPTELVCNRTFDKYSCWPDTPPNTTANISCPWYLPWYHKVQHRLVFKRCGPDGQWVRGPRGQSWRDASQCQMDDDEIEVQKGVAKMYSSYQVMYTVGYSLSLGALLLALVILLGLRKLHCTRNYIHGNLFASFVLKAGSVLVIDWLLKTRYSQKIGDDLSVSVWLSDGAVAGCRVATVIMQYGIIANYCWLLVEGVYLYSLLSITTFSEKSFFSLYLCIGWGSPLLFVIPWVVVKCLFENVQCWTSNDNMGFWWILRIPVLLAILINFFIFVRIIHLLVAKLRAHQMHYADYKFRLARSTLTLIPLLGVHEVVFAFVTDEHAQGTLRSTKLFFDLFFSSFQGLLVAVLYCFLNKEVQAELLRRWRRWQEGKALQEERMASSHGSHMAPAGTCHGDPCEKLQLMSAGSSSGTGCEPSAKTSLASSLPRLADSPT

Binder	IC50, inhibition of 100 pM GCG-stimulated luciferase activity, rat GCGR reporter cells
B1	0.88 nM
B2	0.93 nM
B3	8.07 nM
B4	3.66 nM
B5	3.87 nM

Target: T2, hGCGR-mmh
Assay: SPR Biacore T100, 25C, mAb captured, antigen flowed
Method: (§1) Measurements were conducted on a T100 Biacore instrument. Antibodies were captured onto the Biacore sensor chip surface via a covalently-linked anti-human kappa antibody capture surface, and the soluble GCGR proteins were applied to the surface either in a monovalent (hGCGR expressed with a myc-myc-hexa-histidine C-terminal tag) or bivalent (hGCGR and MfGCGR expressed with an N-terminal Fc fusion) format.
(§2) Binding dissociation equilibrium constants and dissociative half-lives were calculated from the kinetic rate constants as: KD=kd/kₐ; t_{1/2}=(In2/kd).

Binder	Kd	T½	koff	kon
B1	0.369 nM	0.55 h	0.000352 s⁻¹	952000 M⁻¹ s⁻¹
B2	2.06 nM	0.0833 h	0.00212 s⁻¹	1.03e+06 M⁻¹ s⁻¹
B3	0.431 nM	0.567 h	0.000344 s⁻¹	798000 M⁻¹ s⁻¹
B4	0.187 nM	0.967 h	0.000199 s⁻¹	1.07e+06 M⁻¹ s⁻¹
B5	0.17 nM	1.73 h	0.000111 s⁻¹	657000 M⁻¹ s⁻¹
B6	0.093 nM	6.32 h	3.05e-05 s⁻¹	326000 M⁻¹ s⁻¹

The binders below were run against T3, hGCGR-hFc (human) in the same assay as above.
T3 construct: also called REGN316
Method: as §1, §2

Binder	Kd	T½	koff	kon
B1	0.0338 nM	4.7 h	4.1e-05 s⁻¹	1.21e+06 M⁻¹ s⁻¹
B2	0.201 nM	0.85 h	0.000226 s⁻¹	1.13e+06 M⁻¹ s⁻¹
B3	0.0724 nM	3.37 h	5.72e-05 s⁻¹	790000 M⁻¹ s⁻¹
B4	0.0389 nM	6.05 h	3.18e-05 s⁻¹	818000 M⁻¹ s⁻¹
B5	0.0202 nM	12.5 h	1.54e-05 s⁻¹	760000 M⁻¹ s⁻¹
B6	0.0122 nM	38.9 h	4.95e-06 s⁻¹	410000 M⁻¹ s⁻¹

What follows are binders tested against T4, mfGCGR-hFc (cynomolgus monkey (Macaca fascicularis)) in the same assay as above.
T4 construct: also called mfGCGR-N-terminal hFc
T4 sequence (chain, as listed by the source limits assumed): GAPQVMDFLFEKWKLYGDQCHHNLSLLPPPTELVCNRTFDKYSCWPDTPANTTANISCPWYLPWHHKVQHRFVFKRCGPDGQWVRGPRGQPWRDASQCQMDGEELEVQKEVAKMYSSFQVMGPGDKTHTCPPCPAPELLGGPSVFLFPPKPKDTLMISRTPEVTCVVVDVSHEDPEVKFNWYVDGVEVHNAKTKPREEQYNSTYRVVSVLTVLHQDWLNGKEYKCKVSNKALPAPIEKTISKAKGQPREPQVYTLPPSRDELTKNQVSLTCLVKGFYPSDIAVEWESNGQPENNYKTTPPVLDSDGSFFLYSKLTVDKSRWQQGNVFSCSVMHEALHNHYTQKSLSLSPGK
Method: as §1, §2

Binder	Kd	T½	koff	kon
B1	0.00902 nM	13.4 h	1.44e-05 s⁻¹	1.6e+06 M⁻¹ s⁻¹
B2	0.0529 nM	2.28 h	8.46e-05 s⁻¹	1.6e+06 M⁻¹ s⁻¹
B3	0.0254 nM	7.95 h	2.42e-05 s⁻¹	953000 M⁻¹ s⁻¹
B4	0.011 nM	13.9 h	1.38e-05 s⁻¹	1.26e+06 M⁻¹ s⁻¹
B5	0.0069 nM	23.7 h	8.12e-06 s⁻¹	1.17e+06 M⁻¹ s⁻¹
B6	≤ 0.00156 nM	192 h	≤ 1e-06 s⁻¹	643000 M⁻¹ s⁻¹

Target: T2, hGCGR-mmh
Assay: SPR Biacore T100, 37C, mAb captured, antigen flowed
Method: as §1, §2

Binder	Kd	T½	koff	kon
B1	1.35 nM	0.1 h	0.002 s⁻¹	1.48e+06 M⁻¹ s⁻¹
B2	6.67 nM	0.0167 h	0.0108 s⁻¹	1.61e+06 M⁻¹ s⁻¹
B3	2.12 nM	0.1 h	0.00197 s⁻¹	928000 M⁻¹ s⁻¹
B4	0.943 nM	0.167 h	0.00113 s⁻¹	1.2e+06 M⁻¹ s⁻¹
B5	0.533 nM	0.367 h	0.000519 s⁻¹	973000 M⁻¹ s⁻¹
B6	0.252 nM	1.73 h	0.000111 s⁻¹	441000 M⁻¹ s⁻¹

These binders were tested against T3, hGCGR-hFc in the same assay as above.
Method: as §1, §2

Binder	Kd	T½	koff	kon
B1	0.157 nM	0.833 h	0.000232 s⁻¹	1.48e+06 M⁻¹ s⁻¹
B2	0.124 nM	1 h	0.000192 s⁻¹	1.55e+06 M⁻¹ s⁻¹
B3	0.324 nM	0.617 h	0.000309 s⁻¹	952000 M⁻¹ s⁻¹
B4	0.181 nM	0.9 h	0.000214 s⁻¹	1.18e+06 M⁻¹ s⁻¹
B5	0.0779 nM	2.12 h	9.12e-05 s⁻¹	1.17e+06 M⁻¹ s⁻¹
B6	0.0537 nM	5.4 h	3.57e-05 s⁻¹	664000 M⁻¹ s⁻¹

These binders were tested against T4, mfGCGR-hFc in the same assay as above.
Method: as §1, §2

Binder	Kd	T½	koff	kon
B1	0.0357 nM	2.42 h	7.94e-05 s⁻¹	2.22e+06 M⁻¹ s⁻¹
B2	0.0353 nM	2.68 h	7.17e-05 s⁻¹	2.03e+06 M⁻¹ s⁻¹
B3	0.101 nM	1.52 h	0.000128 s⁻¹	1.27e+06 M⁻¹ s⁻¹
B4	0.0586 nM	2.22 h	8.72e-05 s⁻¹	1.49e+06 M⁻¹ s⁻¹
B5	0.0257 nM	4.68 h	4.12e-05 s⁻¹	1.6e+06 M⁻¹ s⁻¹
B6	0.0164 nM	13 h	1.48e-05 s⁻¹	904000 M⁻¹ s⁻¹
